Drawing on US20220098307A1 (WUHAN YZY BIOPHARMA, published 2022), this text covers EC50 for 15 molecules.

Positions count from the first letter of the chain named. In names and notes the source's numbering stands.

The labels stand for the following.
B1: CD38-M1-G2 (bispecific antibody, human IgG1, kappa)
chain: QVQLVESGGGVVQPGRSLRLSCAASGFTFSTYAMNWVRQAPGKGLEWVARIRSKYNNYATYYADSVKDRFTISRDDSKNTLYLQMNSLRAEDTAVYYCARHGNFGNSYVSWFAYWGQGTLVTVSSGGGGSGGGGSGGGGSQTVVTQEPSLTVSPGGTVTLTCRSSTGAVTTSNYANWVQQKPGQAPRGLIGGTNKRAPGVPARFSGSLLGGKAALTLSGVQPEDEAEYYCALWYSNLWVFGGGTKVEIKGRGRGSDKTHTCPPCPAPPVAGPSVFLFPPKPKDTLMISRTPEVTCVVVDVSHEDPEVQFNWYVDGVEVHNAKTKPREEQFNSTFRVVSVLTVVHQDWLNGKEYKCKVSNKGLPAPIEKTISKTKGQPREPQVCTLPPSRDELTKNQVSLSCAVKGFYPSDIAVEWESNGQPENNYKTTPPVLDSDGSFFLVSKLTVDKSRWQQGNVFSCSVMHEALHNHYTQKSLSLSPGK
heavy: EVQLLESGGGLVQPGGSLRLSCAVSGFTFNSFAMSWVRQAPGKGLEWVSAISGSGGGTYYADSVKGRFTISRDNSKNTLYLQMNSLRAEDTAVYFCAKDKILWFGEPVFDYWGQGTLVTVSSASTKGPSVFPLAPSSKSTSGGTAALGCLVKDYFPEPVTVSWNSGALTSGVHTFPAVLQSSGLYSLSSVVTVPSSSLGTQTYICNVNHKPSNTKVDKKVEPKSCDKTHTCPPCPAPPVAGPSVFLFPPKPKDTLMISRTPEVTCVVVDVSHEDPEVQFNWYVDGVEVHNAKTKPREEQFNSTFRVVSVLTVVHQDWLNGKEYKCKVSNKGLPAPIEKTISKTKGQPREPQVYTLPPCRDELTKNQVSLWCLVKGFYPSDIAVEWESNGQPENNYKTTPPVLDSDGSFFLYSKLTVDKSRWQQGNVFSCSVMHEALHNHYTQKSLSLSPGK
light: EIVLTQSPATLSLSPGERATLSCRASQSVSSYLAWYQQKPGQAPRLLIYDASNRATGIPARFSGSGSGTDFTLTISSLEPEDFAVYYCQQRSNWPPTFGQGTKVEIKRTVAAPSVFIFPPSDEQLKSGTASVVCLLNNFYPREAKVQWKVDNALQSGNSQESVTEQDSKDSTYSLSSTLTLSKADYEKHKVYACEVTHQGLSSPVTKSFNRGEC
notes: structure 1; CD38 x CD3; CH2 G2CH2
B2: CD38-M1-G2-1 (bispecific antibody)
chain: not shown
heavy: B1 heavy
light: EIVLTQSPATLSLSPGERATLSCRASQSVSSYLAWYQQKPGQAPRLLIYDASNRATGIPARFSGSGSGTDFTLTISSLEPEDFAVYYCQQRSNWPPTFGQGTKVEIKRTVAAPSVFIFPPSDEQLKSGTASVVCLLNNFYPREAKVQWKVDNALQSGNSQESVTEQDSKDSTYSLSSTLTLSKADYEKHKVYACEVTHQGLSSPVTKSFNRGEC
notes: structure 1; CD38 x CD3 (I2C); CH2 G2CH2
B3: CD38-M1-AG2 (bispecific antibody)
chain: not shown
heavy: B1 heavy with C234A
light: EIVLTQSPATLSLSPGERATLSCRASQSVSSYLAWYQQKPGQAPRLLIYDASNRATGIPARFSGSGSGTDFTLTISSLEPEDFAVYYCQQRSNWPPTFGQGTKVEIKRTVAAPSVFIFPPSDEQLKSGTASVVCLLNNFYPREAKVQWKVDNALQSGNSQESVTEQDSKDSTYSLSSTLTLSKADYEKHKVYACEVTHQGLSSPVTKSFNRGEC
notes: structure 1; CD38 x CD3 (I2C); CH2 AG2CH2
B4: CD38-M1-DG2D (bispecific antibody)
chain: not shown
heavy: B1 heavy with D269A, D274A
light: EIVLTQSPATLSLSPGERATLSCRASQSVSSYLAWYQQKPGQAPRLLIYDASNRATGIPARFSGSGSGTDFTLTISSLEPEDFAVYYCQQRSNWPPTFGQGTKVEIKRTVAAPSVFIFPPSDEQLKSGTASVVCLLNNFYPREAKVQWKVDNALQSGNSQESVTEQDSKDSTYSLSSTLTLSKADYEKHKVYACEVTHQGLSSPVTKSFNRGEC
notes: structure 1; CD38 x CD3 (I2C); CH2 DG2DCH2
B5: CD38-M1-PG2 (bispecific antibody)
chain: not shown
heavy: B1 heavy with C234P
light: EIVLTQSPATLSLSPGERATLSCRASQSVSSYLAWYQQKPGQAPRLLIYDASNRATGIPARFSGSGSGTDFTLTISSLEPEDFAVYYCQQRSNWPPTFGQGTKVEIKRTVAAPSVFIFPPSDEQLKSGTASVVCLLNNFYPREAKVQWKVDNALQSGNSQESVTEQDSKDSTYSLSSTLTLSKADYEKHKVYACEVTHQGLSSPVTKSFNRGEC
notes: structure 1; CD38 x CD3 (I2C); CH2 PG2CH2
B6: CD38-M1-SG2-3 (bispecific antibody)
chain: not shown
heavy: B1 heavy with C234S
light: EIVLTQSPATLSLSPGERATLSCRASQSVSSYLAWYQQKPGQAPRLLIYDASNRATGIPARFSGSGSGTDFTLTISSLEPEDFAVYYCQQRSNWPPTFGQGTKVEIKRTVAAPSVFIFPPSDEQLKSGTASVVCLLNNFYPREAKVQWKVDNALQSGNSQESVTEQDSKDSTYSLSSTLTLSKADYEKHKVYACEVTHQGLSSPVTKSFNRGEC
notes: structure 1; CD38 x CD3 (I2C); CH2 SG2CH2
B7: CD38-M1-SG2 (bispecific antibody, human IgG1, kappa)
chain: B1 chain with C264S
heavy: B1 heavy with C234S
light: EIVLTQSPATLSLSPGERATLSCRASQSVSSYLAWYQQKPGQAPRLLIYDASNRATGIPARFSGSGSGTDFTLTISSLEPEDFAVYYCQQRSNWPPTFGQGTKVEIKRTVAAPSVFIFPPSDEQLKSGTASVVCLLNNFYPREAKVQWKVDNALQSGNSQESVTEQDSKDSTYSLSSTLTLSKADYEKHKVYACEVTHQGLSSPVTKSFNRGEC
notes: structure 1; CD38 x CD3; CH2 SG2CH2
B8: CD38-M1-GG2 (bispecific antibody)
chain: not shown
heavy: B1 heavy with C234G
light: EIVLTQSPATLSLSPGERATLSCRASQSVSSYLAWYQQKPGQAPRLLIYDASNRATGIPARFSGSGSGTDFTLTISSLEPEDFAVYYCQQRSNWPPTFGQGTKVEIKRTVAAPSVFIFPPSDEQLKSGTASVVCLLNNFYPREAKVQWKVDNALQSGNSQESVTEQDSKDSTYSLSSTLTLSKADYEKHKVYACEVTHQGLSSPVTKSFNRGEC
notes: structure 1; CD38 x CD3 (I2C); CH2 GG2CH2
B9: CD38-M1-DG2 (bispecific antibody)
chain: not shown
heavy: B1 heavy with D269A
light: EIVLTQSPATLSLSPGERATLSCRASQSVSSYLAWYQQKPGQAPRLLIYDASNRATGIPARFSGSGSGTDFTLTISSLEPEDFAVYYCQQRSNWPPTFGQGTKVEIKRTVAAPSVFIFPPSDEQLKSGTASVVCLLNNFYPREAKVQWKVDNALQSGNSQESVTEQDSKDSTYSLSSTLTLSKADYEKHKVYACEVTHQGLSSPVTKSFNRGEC
notes: structure 1; CD38 x CD3 (I2C); CH2 DG2CH2
B10: CD38-M1-G2D (bispecific antibody)
chain: not shown
heavy: B1 heavy with D274A
light: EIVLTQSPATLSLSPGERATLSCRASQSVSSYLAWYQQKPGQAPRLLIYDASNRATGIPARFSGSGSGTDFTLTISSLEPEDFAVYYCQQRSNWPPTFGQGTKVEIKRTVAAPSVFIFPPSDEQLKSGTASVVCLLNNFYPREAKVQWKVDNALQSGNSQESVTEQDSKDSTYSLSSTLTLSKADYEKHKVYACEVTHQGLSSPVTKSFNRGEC
notes: structure 1; CD38 x CD3 (I2C); CH2 G2DCH2
B11: CD38-M1-FES (bispecific antibody, human IgG1, kappa)
chain: QVQLVESGGGVVQPGRSLRLSCAASGFTFSTYAMNWVRQAPGKGLEWVARIRSKYNNYATYYADSVKDRFTISRDDSKNTLYLQMNSLRAEDTAVYYCARHGNFGNSYVSWFAYWGQGTLVTVSSGGGGSGGGGSGGGGSQTVVTQEPSLTVSPGGTVTLTCRSSTGAVTTSNYANWVQQKPGQAPRGLIGGTNKRAPGVPARFSGSLLGGKAALTLSGVQPEDEAEYYCALWYSNLWVFGGGTKVEIKGGGGSDKTHTCPPCPAPEFEGGPSVFLFPPKPKDTLMISRTPEVTCVVVDVSHEDPEVKFNWYVDGVEVHNAKTKPREEQYNSTYRVVSVLTVLHQDWLNGKEYKCKVSNKALPASIEKTISKAKGQPREPQVCTLPPSRDELTKNQVSLSCAVKGFYPSDIAVEWESNGQPENNYKTTPPVLDSDGSFFLVSKLTVDKSRWQQGNVFSCSVMHEALHNHYTQKSLSLSPGK
heavy: EVQLLESGGGLVQPGGSLRLSCAVSGFTFNSFAMSWVRQAPGKGLEWVSAISGSGGGTYYADSVKGRFTISRDNSKNTLYLQMNSLRAEDTAVYFCAKDKILWFGEPVFDYWGQGTLVTVSSASTKGPSVFPLAPSSKSTSGGTAALGCLVKDYFPEPVTVSWNSGALTSGVHTFPAVLQSSGLYSLSSVVTVPSSSLGTQTYICNVNHKPSNTKVDKKVEPKSCDKTHTCPPCPAPEFEGGPSVFLFPPKPKDTLMISRTPEVTCVVVDVSHEDPEVKFNWYVDGVEVHNAKTKPREEQYNSTYRVVSVLTVLHQDWLNGKEYKCKVSNKALPASIEKTISKAKGQPREPQVYTLPPCRDELTKNQVSLWCLVKGFYPSDIAVEWESNGQPENNYKTTPPVLDSDGSFFLYSKLTVDKSRWQQGNVFSCSVMHEALHNHYTQKSLSLSPGK
light: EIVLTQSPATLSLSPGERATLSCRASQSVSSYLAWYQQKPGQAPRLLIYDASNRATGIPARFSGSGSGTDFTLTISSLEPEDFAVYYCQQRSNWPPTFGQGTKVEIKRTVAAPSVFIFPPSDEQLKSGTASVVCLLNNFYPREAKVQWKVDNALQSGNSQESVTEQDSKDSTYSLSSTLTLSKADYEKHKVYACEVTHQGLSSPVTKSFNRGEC
notes: structure 1; CD38 x CD3; CH2 FES
B12: CD38-M1-FES-1 (bispecific antibody)
chain: not shown
heavy: B11 heavy
light: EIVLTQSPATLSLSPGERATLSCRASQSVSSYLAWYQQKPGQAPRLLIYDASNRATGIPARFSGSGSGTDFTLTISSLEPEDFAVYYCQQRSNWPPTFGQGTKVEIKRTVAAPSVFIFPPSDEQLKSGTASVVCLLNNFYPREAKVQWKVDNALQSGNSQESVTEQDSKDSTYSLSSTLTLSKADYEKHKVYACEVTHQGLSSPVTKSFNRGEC
notes: structure 1; CD38 x CD3 (I2C); CH2 FES
B13: M1IC-FES (bispecific antibody)
chain: not shown
heavy: EVKLDETGGGLVQPGRPMKLSCVASGFTFSDYWMNWVRQSPEKGLEWVAQIRNKPYNYETYYSDSVKGRFTISRDDSKSSVYLQMNNLRVEDMGIYYCTGSYYGMDYWGQGTSVTVSSASTKGPSVFPLAPSSKSTSGGTAALGCLVKDYFPEPVTVSWNSGALTSGVHTFPAVLQSSGLYSLSSVVTVPSSSLGTQTYICNVNHKPSNTKVDKKVEPKSCDKTHTCPPCPAPEFEGGPSVFLFPPKPKDTLMISRTPEVTCVVVDVSHEDPEVKFNWYVDGVEVHNAKTKPREEQYNSTYRVVSVLTVLHQDWLNGKEYKCKVSNKALPASIEKTISKAKGQPREPQVYTLPPCRDELTKNQVSLWCLVKGFYPSDIAVEWESNGQPENNYKTTPPVLDSDGSFFLYSKLTVDKSRWQQGNVFSCSVMHEALHNHYTQKSLSLSPGK
light: DVVMTQTPLSLPVSLGDQASISCRSSQSLVHSNGNTYLRWYLQKPGQSPKVLIYKVSNRFSGVPDRFSGSGSGTDFTLKISRVEAEDLGVYFCSQSTHVPWTFGGGTKLEIKRTVAAPSVFIFPPSDEQLKSGTASVVCLLNNFYPREAKVQWKVDNALQSGNSQESVTEQDSKDSTYSLSSTLTLSKADYEKHKVYACEVTHQGLSSPVTKSFNRGEC
notes: structure 1 isotype control; CH2 FES
B14: M1IC-WT-1 (bispecific antibody, human IgG1, kappa)
chain: not shown
heavy: not shown
light: B13 light
notes: structure 1 isotype control; CH2 WT
B15: M1IC-NA (bispecific antibody)
chain: not shown
heavy: B13 heavy with F235L, E236L, N298A, S332P
light: B13 light
notes: structure 1 isotype control; CH2 N297A

The target in the first assay is T1, Monkey CD3 (monkey).
T1 construct: whole, on cells; also called CD3 of monkey CD3 positive T cells
Kind of assay: flow cytometry, monkey T cells. A general note: A flow cytometer gives signals particle by particle.
In general, EC50 refers to the concentration giving half of the maximal effect. The molecule B1 gave a concentration giving a half-maximal response (EC50) of 142 nM.

For B2, the concentration for a half-maximal effect (EC50) worked out at 12.6 nM.

Molecule B3 showed a concentration for a half-maximal effect (EC50) of 10.2 nM.

B4 registered a 50% effective concentration (EC50) of 7.05 nM.

For the molecule B5, it took 11.5 nM to reach a half-maximal effect (EC50).

Regarding B6, the concentration giving a half-maximal response (EC50) is 7.59 nM.

The molecule B7 showed an EC50 of 159 nM.

The molecule B8 yielded an EC50 of 10.4 nM.

Regarding B9, the response was half-maximal at 11 nM (EC50).

With B10, the midpoint of the response, the EC50, lay at 10.1 nM.

On to B11, for which the EC50 is 291 nM.

The molecule B12 gave an EC50 of 9.18 nM.

As to B13, the concentration for a half-maximal effect (EC50) stood at 11.4 nM.

Regarding B14, it took 174 nM to reach a half-maximal effect (EC50).

B15 showed an EC50 of 9.63 nM.

A further assay has as its target T2, Human CD3ε (human, UniProt P07766 23-126).
T2 construct: CD3 on T cells isolated from human whole blood
As to the kind of experiment: flow cytometry, human T cells. The source says:
1) Cell preparation: T cells isolated from CD3-positive human whole blood were used for a CD3 end affinity detection of multifunctional antibody molecule; positive tumor cells of corresponding antigen were used for detecting affinity of tumor antigen; for example, CD38-positive MM. 1S cells (purchased from the Cell Resource Center of Shanghai Institutes for Biological Sciences, Chinese Academy of Sciences) or RPMI 8226 cells (purchased from the Cell Resource Center of Shanghai Institutes for Biological Sciences, Chinese Academy of Sciences) were used for CD38 antigen detection, and PD-L1 positive H358 cells (purchased from the Cell Resource Center of Shanghai Institutes for Biological Sciences, Chinese Academy of Sciences) were used for PD-L1 antigen detection, and so on. The cells were resuspended with 1% FBS-PBS, adjusted to a density of 4×10⁶/ml, and 50 μl of cells were taken from each well, and then plated at 2×10⁵ per well. Cell plating was operated on ice
2) Addition of the antibody: according to the experimental design, the antibody was diluted gradually, and dilution of antibody was operated on ice. For example, the initial concentration of antibody for dilution was 3000 nM, and the antibody was diluted by 3 times with 11 concentration gradients. The diluted antibody was added to a cell well at 50 μl per well, mixed well, and shaked and incubated at 4° C. 1100 rpm/min for 2 h; after washing, the cells were resuspend in 1% FBS-PBS, and a diluted secondary antibody PE anti-human IgG FC (Biolegend, 409304) was added with a final concentration of 8 ug/ml and a volume of 50 μl/well. At the same time, a well only added with cells and secondary antibody was set as a control, the components were mixed well, and incubated under shaking at 1100 rpm/min at 4° C. for 1 h;
5) Data analysis: the data was analyzed by a flow analysis software FlowJo 7.6 thereby obtaining an average fluorescence intensity of the specific antibody concentration, plotted by a Graphpad Prism 5 with the antibody concentration (nM) as an abscissa and the average fluorescence intensity as an ordinate; the EC50 value was calculated by the method of One site—Specific binding, and the EC50 value indicated the cell affinity of the antibody to the corresponding target antigen.
B14 returned an EC50 of 153 nM.
